Test results from US20230303711A1 (BIO THERA SOLUTIONS, published 2023).
Changes are numbered by the printed parent chain. Names and notes keep the numbering of the source.

B1: Antibody 17-ScFv (scFv)
scFv: QVQLQESGPGLVKPSETLSLTCTVSGGSLDNYYWSWIRQPPGKGLEWIGYIYYSGNTNYNPSLKSRVTISVDTSKNQFSLRLRSVTAADTAVYYCARGGRFLERYWGQGTLVTVSSGGGGSGGGGSGGGGSDIQMTQSPSSVSASVGDRVTISCRANQAIGTWLAWYQQKPGKAPKLLIYAASTLQSGVPSRFSGSGSGTEFTLTISSLQAEDVAVYYCQQYYTTPLTFGGGTKLEIK
notes: VH C-terminus linked to VL N-terminus; Purified on a protein A column and detected with anti-human IgG Fc-PE, but no Fc or tag is described for it
B2: Antibody 17 (antibody, human IgG1, kappa, V domains shown)
VH: QVQLQESGPGLVKPSETLSLTCTVSGGSLDNYYWSWIRQPPGKGLEWIGYIYYSGNTNYNPSLKSRVTISVDTSKNQFSLRLRSVTAADTAVYYCARGGRFLERYWGQGTLVTVSS
VL: DIQMTQSPSSVSASVGDRVTISCRANQAIGTWLAWYQQKPGKAPKLLIYAASTLQSGVPSRFSGSGSGTEFTLTISSLQAEDVAVYYCQQYYTTPLTFGGGTKLEIKR
notes: Full-length IgG1
B3: Antibody L5 (antibody, human IgG1, kappa)
heavy: not shown
light: EIVLTQSPSSLSASVGDRVTIPCRASLSIGSFLNWYQQRPGEAPKLLIFAASSLRSGVPSRFSGSGSGTDFTLTISGLQPEDFATYYCQQTYTTPYTFGPGTRLEIKRTVAAPSVFIFPPSDEQLKSGTASVVCLLNNFYPREAKVQWKVDNALQSGNSQESVTEQDSKDSTYSLSSTLTLSKADYEKHKVYACEVTHQGLSSPVTKSFNRGEC
notes: Full-length IgG1
B4: Antibody L24 (antibody, human IgG1, kappa)
heavy: not shown
light: B3 light with E1D, V3Q, L4M, G77S, P100Q, R103K, L104V
notes: Full-length IgG1
B5: Antibody L1 (antibody, human IgG1, kappa)
heavy: not shown
light: B3 light with S10T, P100Q, R103K, L104V
notes: Full-length IgG1
B6: Antibody L26 (antibody, human IgG1, kappa)
heavy: not shown
light: B3 light with G77S, P100Q, R103K
notes: Full-length IgG1
B7: Antibody 11 (antibody, human IgG1, kappa, V domains shown)
VH: B2 VH with N31G, Y50R, Y53D, S54G, G55S, N56G, F101I, L102F, E103G, R104G
VL: B2 VL
notes: Full-length IgG1
B8: Antibody 3-6 (antibody, human IgG1, kappa, V domains shown)
VH: B2 VH with F101I, L102F, E103A, R104G
VL: B2 VL
notes: Full-length IgG1
B9: Antibody 3-3 (antibody, human IgG1, kappa, V domains shown)
VH: B2 VH with F101I, L102F, E103G, R104G
VL: B2 VL
notes: Full-length IgG1
B10: Antibody 6 (antibody, human IgG1, kappa, V domains shown)
VH: B2 VH with D30N, N31D, Y50R, Y53G, S54N, N56D, F101I, E103A, R104G
VL: B2 VL
notes: Full-length IgG1
B11: Antibody 3 (antibody, human IgG1, kappa, V domains shown)
VH: B2 VH with N31G, Y50R, Y53G, S54N, G55S, N56T, F101I, L102F, E103A, R104G
VL: B2 VL
notes: Full-length IgG1
B12: Antibody 10 (antibody, human IgG1, kappa, V domains shown)
VH: B2 VH with Y50R, S54N, F101I, E103A, R104G
VL: B2 VL
notes: Full-length IgG1
B13: Antibody 6Y-G4 (antibody, human IgG4 S228P, kappa)
heavy: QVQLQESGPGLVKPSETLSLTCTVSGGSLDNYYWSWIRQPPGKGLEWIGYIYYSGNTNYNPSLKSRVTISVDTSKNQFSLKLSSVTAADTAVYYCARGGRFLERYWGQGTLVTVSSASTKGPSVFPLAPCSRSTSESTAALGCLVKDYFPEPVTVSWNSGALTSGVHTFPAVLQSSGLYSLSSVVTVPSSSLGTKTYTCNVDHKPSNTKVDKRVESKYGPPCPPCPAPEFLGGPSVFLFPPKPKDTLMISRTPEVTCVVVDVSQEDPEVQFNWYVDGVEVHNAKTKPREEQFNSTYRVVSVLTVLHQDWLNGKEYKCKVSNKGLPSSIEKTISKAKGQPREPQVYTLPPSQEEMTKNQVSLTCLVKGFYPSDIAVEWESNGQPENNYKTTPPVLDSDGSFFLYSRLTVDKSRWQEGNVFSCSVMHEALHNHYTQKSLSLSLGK
light: B3 light with P100Q, R103K, L104V, E105D
notes: IgG4P (S228P) form of 6Y-G1
B14: Antibody L12 (antibody, human IgG1, kappa)
heavy: not shown
light: B3 light with P100Q, R103K, L104V, E105D
notes: Full-length IgG1
B15: Antibody 6Y-G1 (antibody, human IgG1, kappa)
heavy: not shown
light: B3 light with P100Q, R103K, L104V, E105D
notes: also called Antibody L12-6; L12-6
B16: Antibody L12-10 (antibody, human IgG1, kappa)
heavy: not shown
light: B3 light with G77S, P100Q, R103K, L104V
notes: Full-length IgG1
B17: Antibody L12-11 (antibody, human IgG1, kappa)
heavy: not shown
light: DIQMTQSPSSLSASVGDRVTITCRASLSIGSFLNWYQQKPGKAPKLLIYAASSLRSGVPSRFSGSGSGTDFTLTISSLQPEDFATYYCQQTYTTPYTFGQGTKVEIKRTVAAPSVFIFPPSDEQLKSGTASVVCLLNNFYPREAKVQWKVDNALQSGNSQESVTEQDSKDSTYSLSSTLTLSKADYEKHKVYACEVTHQGLSSPVTKSFNRGEC
notes: Full-length IgG1
B18: Antibody L12-4 (antibody, human IgG1, kappa)
heavy: not shown
light: B17 light with D1E, Q3V, M4L, T22P, Y49F
notes: Full-length IgG1
B19: Antibody L12-1 (antibody, human IgG1, kappa)
heavy: not shown
light: B17 light with D1E, Q3V, M4L
notes: Full-length IgG1
B20: Antibody L12-9 (antibody, human IgG1, kappa)
heavy: not shown
light: B17 light
notes: Full-length IgG1
B21: Antibody L12-2 (antibody, human IgG1, kappa, V domains shown)
VH: B2 VH with R81K, R83S
VL: EIVLTQSPSSLSASVGDRVTIPCRASLSIGSFLNWYQQRPGEAPKLLIFAASSLRSGVPSRFSGSGSGTDFTLTISSLQPEDFATYYCQQTYTTPYTFGQGTKVEIKR
notes: Full-length IgG1
B22: Antibody L12-5 (antibody, human IgG1, kappa)
heavy: not shown
light: B17 light with D1E, Q3V, M4L
notes: Full-length IgG1
B23: Antibody L12-7 (antibody, human IgG1, kappa)
heavy: not shown
light: B17 light with D1E, Q3V, M4L, Y49F
notes: Full-length IgG1
B24: Antibody L12-3 (antibody, human IgG1, kappa, V domains shown)
VH: B2 VH with R81K, R83S
VL: B21 VL with P22T, R39K, E42K
notes: Full-length IgG1
B25: Antibody 18 (antibody, human IgG1, kappa, V domains shown)
VH: QVQLQESGPGLVKPSETLSLTCTVSGGSLDNYYWSWIRQPPGKGLEWIGYIYYSGNTNYNPSLKSRVTISVDTSKNQFSLRLRSVTAADTAVYYCARGRGIFGYWGQGTLVTVSS
VL: B2 VL
notes: Full-length IgG1
B26: Antibody 25 (antibody, human IgG1, kappa, V domains shown)
VH: B25 VH with R99G, G100R, Y104H
VL: B2 VL
notes: Full-length IgG1
B27: Antibody 24 (antibody, human IgG1, kappa, V domains shown)
VH: B2 VH with Y50R, Y53G, S54D, G55S, N56A, F101I, L102F, E103S, R104G
VL: B2 VL
notes: Full-length IgG1
B28: Antibody 16 (antibody, human IgG1, kappa, V domains shown)
VH: B2 VH with F101I, L102F, E103S, R104G
VL: B2 VL
notes: Full-length IgG1

target: T1, CD47 on the cell surface (CHO-CD47 cells, Jurkat cells, Raji cells) (human, UniProt Q08722 19-323); experiment: flow cytometry on CHO-CD47 cells, goat anti-human IgG Fc-PE, PE-A mean fluorescence
T1 construct: whole, on cells; One molecule is used for CD47 on CHO-CD47, Jurkat and Raji cells; also called CHO surface CD47; Jurkat cell surface CD47

Binder | EC50 (read off the curve) [µg/mL]
B1 | ~1

target: T2, His-tagged human CD47-ECD protein (CD47-His) (human, UniProt Q08722 19-139); experiment: competitive ELISA on coated CD47-His (2 µg/mL); blocked ligand SIRPα-Fc-Bio (0.1 µg/mL), HRP-streptavidin, OD450; value is parameter C of the printed 4-parameter fit
T2 construct: Expressed in HEK293F cells; also called CD47-His antigen

Binder | IC50 [µg/mL]
B2 | 0.795
B3 | 1.02
B4 | 1.09
B5 | 0.967
B6 | 1.02

target: T2, His-tagged human CD47-ECD protein …; experiment: as above; remark: another data set of the same source

Binder | IC50 [µg/mL]
B7 | 0.921
B8 | 1.12
B9 | 0.939
B10 | 1.1
B11 | 0.844
B12 | 1.06

target: T3, macaque CD47-Fc (macaque, UniProt A0A2K5X523 19-141); experiment: ELISA on coated macaque CD47-Fc; row printed as Affinity (µg/mL)
T3 construct: Bought reagent; not shown: Fc part of the bought fusion and any linker to it
T3 sequence (A0A2K5X523 entry or part of it limits assumed): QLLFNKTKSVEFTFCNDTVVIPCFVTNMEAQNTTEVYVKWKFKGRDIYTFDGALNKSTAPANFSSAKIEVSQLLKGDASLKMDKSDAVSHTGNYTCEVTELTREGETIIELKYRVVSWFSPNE

Binder | EC50 [µg/mL]
B2 | 0.064
B13 | 0.11
B14 | 0.066
B15 | 0.083

target: T1, CD47 on the cell surface (CHO-CD47 …); experiment: flow cytometry competition on CHO-CD47 cells; blocked ligand SIRPα-Fc-Bio (6.5 µg/mL), streptavidin-PE; value is parameter C of the printed 4-parameter fit

Binder | IC50 [µg/mL]
B1 | 15.1

target: T2, His-tagged human CD47-ECD protein …; experiment: BLI (Fortebio), antibody on protein A sensor, CD47-His in solution

Binder | Kd [nM]
B16 | 0.195
B17 | 0.175
B18 | 0.107
B19 | 0.152
B20 | 0.124
B14 | 0.112
B21 | 0.122
B22 | 0.138
B15 | 0.142
B23 | 0.149
B24 | 0.144

target: T2, His-tagged human CD47-ECD protein …; experiment: competitive ELISA on coated CD47-His (2 µg/mL); blocked ligand SIRPα-Fc-Bio (0.1 µg/mL), HRP-streptavidin, OD450; value is parameter C of the printed 4-parameter fit; remark: another data set of the same source

Binder | IC50 [µg/mL]
B13 | 0.763
B15 | 0.913

target: T2, His-tagged human CD47-ECD protein …; experiment: as above; remark: another data set of the same source

Binder | IC50 [µg/mL]
B25 | 1.23
B26 | 1.31
B27 | 1.41
B28 | 0.975
B14 | 1.18

target: T2, His-tagged human CD47-ECD protein …; experiment: competitive ELISA on coated CD47-His (2 µg/mL); blocked ligand SIRPα-Fc-Bio (0.1 µg/mL), HRP-streptavidin, OD450; value is parameter C of the printed 4-parameter fit; inhibition is partial (A 1.373, D 0.661)

Binder | IC50 [µg/mL]
B1 | 0.936

target: T1, CD47 on the cell surface (CHO-CD47 …); experiment: flow cytometry on Jurkat cells, goat anti-human IgG Fc-PE, PE-A mean fluorescence

Binder | EC50 (read off the curve) [µg/mL]
B1 | ~1
